Where no end group is shown, it is not given here.
Columns and labels:
[1] = molecular target: T1, extracellular domain of human CD79b fused to Fc (human, UniProt P40259 29-159); test: SPR (Biacore), Fab against MA79b Fab, immobilized huCD79becd-Fc
T1 construct: also called huCD79becd-Fc; huCD79b-Fc; not shown: Fc part of the fusion
T1 sequence: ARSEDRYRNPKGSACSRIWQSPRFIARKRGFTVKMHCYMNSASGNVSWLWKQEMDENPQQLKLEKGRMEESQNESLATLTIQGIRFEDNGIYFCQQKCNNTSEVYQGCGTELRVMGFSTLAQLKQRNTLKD

[2] = molecular target: T2, extracellular domain of human CD79b (human, UniProt P40259 29-159); test: FACS analysis, IgG (data not shown); reference not given
T2 construct: also called huCD79becd; huCD79b-ecd
T2 sequence: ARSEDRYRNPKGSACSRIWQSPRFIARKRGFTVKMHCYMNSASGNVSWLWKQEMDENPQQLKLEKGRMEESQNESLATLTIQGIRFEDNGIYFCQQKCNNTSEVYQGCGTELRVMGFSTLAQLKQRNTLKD

[3] = molecular target: T2, extracellular domain of human CD79b; test: SPR (Biacore), IgG, immobilized huCD79becd; reference not given
[4] = molecular target: T3, human CD79b on the cell surface (human, UniProt P40259 29-229); test: Scatchard analysis, 125I-labelled IgG competed with unlabelled IgG on BJAB cells stably expressing cynomolgus CD79b and endogenous human CD79b
T3 construct: In the Scatchard analysis the BJAB line also stably expressed cynomolgus CD79b; also called PRO36249; endogenous human CD79b on DoHH-2, BJAB and BJAB-luciferase cells
T3 sequence: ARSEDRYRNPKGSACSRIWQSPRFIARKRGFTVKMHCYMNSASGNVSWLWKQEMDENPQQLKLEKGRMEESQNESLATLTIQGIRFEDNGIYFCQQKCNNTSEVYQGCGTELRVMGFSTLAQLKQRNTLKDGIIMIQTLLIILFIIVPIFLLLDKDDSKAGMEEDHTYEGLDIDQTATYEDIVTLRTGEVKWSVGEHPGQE

[5] = molecular target: T4, 16 amino acid peptide containing the epitope for MA79b (ARSEDRYRNPKGSACK) (human, also: biotinylated, site not given here); test: SPR (Biacore), biotinylated peptide captured on streptavidin chip
T4 construct: Synthetic
T4 peptide: ARSEDRYRNPKGSACK

B1: huMA79b L2-2 (Fab) (Fab, name in Kabat numbering, V domains shown)
VH: EVQLVESGGGLVQPGGSLRLSCAASGYTFSSYWIEWVRQAPGKGLEWVGEILPGGGDTNYNEIFKGRFTISADTSKNTAYLQMNSLRAEDTAVYYCTRRVPVYFDYWGQGTLVTVSS
VL: DIQMTQSPSSLSASVGDRVTITCKASQSVDYDGDSFLNWYQQKPGKAPKLLIYAARKLGRGVPSRFSGSGSGTDFTLTISSLQPEDFATYYCQQSNEDPLTFGQGTKVEIKR
notes: Fab on phage in the selection; purified Fab in FACS and Biacore; rest as huMA79b graft; also called L2-2 mutation; MA79b-grafted humanized antibody variant L2-2
fold improvement in monomeric binding compared to MA79b [1]: 5 fold

B2: MA79b-grafted humanized antibody (IgG) (antibody, V domains shown)
VH: EVQLVESGGGLVQPGGSLRLSCAASGYTFSSYWIEWVRQAPGKGLEWVGEILPGGGDTNYNEIFKGRFTISADTSKNTAYLQMNSLRAEDTAVYYCTRRVPVYFDYWGQGTLVTVSS
VL: DIQMTQSPSSLSASVGDRVTITCKASQSVDYDGDSFLNWYQQKPGKAPKLLIYAASNLESGVPSRFSGSGSGTDFTLTISSLQPEDFATYYCQQSNEDPLTFGQGTKVEIKR
notes: Expressed as IgG; also called huMA79b graft; huMA79b-graft
fold reduction in binding affinity [2]: > 100 fold | fold loss of affinity [3]: > 50 fold

B3: MA79b-grafted humanized antibody variant L2/H3 (antibody, name in Kabat numbering, V domains shown)
VH: EVQLVESGGGLVQPGGSLRLSCAASGYTFSSYWIEWVRQAPGKGLEWVGEILPGGGDTNYNEIFKGRFTISADTSKNTAYLQMNSLRAEDTAVYYCTRRVPIRLDYWGQGTLVTVSS
VL: DIQMTQSPSSLSASVGDRVTITCKASQSVDYDGDSFLNWYQQKPGKAPKLLIYAARKLGRGVPSRFSGSGSGTDFTLTISSLQPEDFATYYCQQSNEDPLTFGQGTKVEIKR
notes: 125I-labelled in the Scatchard analysis; also called huMA79b L2/H3
Kd [4]: 520 pM | binding result [5]: binds
